Data published in paper PMC5683647, “Comparison of histone-like HU protein DNA-binding properties and HU/IHF protein sequence alignment”.

Columns and labels:
[1] = test system: HU (Mycoplasma gallisepticum); assay: EMSA; conditions: 20 mM Tris-HCl pH 8.0, 7% glycerol, 40 mM NaCl (dsDNA length series, 200 nM DNA, gel 50 mM Tris-borate) or 150 mM NaCl (distorted structures, 10.5 nM DNA, gel …)
[2] = target: T1, HU (Neisseria gonorrhoeae, UniProt Q5F8J6 1-89); assay: EMSA; conditions: 20 mM Tris-HCl pH 8.0, 7% glycerol, 40 mM NaCl (dsDNA length series, 200 nM DNA, gel 50 mM Tris-borate) or 150 mM NaCl (distorted structures, 10.5 nM DNA, gel …)
T1 sequence: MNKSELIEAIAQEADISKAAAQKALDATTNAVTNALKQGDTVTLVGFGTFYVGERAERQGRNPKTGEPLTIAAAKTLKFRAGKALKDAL

[3] = test system: HU (Spiroplasma melliferum); assay: EMSA; conditions: 20 mM Tris-HCl pH 8.0, 7% glycerol, 40 mM NaCl (dsDNA length series, 200 nM DNA, gel 50 mM Tris-borate) or 150 mM NaCl (distorted structures, 10.5 nM DNA, gel …)
[4] = target: T2, HU (Mycoplasma gallisepticum) (UniProt A0A0F6CKR5); assay: EMSA; conditions: 20 mM Tris-HCl pH 8.0, 150 mM NaCl, 7% glycerol; 15 min; labelled DNA 10.5 nM; gel in 100 mM Tris-borate; temperature not stated; low values mean tight binding
T2 sequence: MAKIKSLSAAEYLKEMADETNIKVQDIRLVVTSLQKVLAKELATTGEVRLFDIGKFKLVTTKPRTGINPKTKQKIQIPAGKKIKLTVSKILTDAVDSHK

[5] = target: T3, HU (Neisseria gonorrhoeae) (UniProt Q5F8J6); assay: EMSA; conditions: 20 mM Tris-HCl pH 8.0, 150 mM NaCl, 7% glycerol; 15 min; labelled DNA 10.5 nM; gel in 100 mM Tris-borate; temperature not stated; low values mean tight binding
T3 sequence: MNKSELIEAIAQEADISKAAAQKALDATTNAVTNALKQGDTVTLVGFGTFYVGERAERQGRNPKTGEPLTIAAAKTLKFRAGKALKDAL

[6] = target: T4, HU (Spiroplasma melliferum) (UniProt A0ABX5UAT3); assay: EMSA; conditions: 20 mM Tris-HCl pH 8.0, 150 mM NaCl, 7% glycerol; 15 min; labelled DNA 10.5 nM; gel in 100 mM Tris-borate; temperature not stated; low values mean tight binding
T4 sequence: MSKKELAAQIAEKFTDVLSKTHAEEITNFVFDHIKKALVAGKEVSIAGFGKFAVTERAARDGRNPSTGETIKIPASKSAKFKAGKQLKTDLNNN

[7] = target: T5, HU alpha (Escherichia coli) (UniProt P0ACF0); assay: EMSA; conditions: 20 mM Tris-HCl pH 8.0, 150 mM NaCl, 7% glycerol; 15 min; labelled DNA 10.5 nM; gel in 100 mM Tris-borate; temperature not stated; low values mean tight binding
T5 sequence: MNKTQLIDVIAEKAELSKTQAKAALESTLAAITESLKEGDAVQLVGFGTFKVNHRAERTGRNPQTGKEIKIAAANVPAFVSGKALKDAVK

[8] = target: T1, HU; assay: EMSA; 20 mM Tris-HCl pH 8.0, 150 mM NaCl, 7% glycerol; 15 min; labelled DNA 10.5 nM; gel in 100 mM Tris-borate; temperature not stated; conditions: protein: recombinant, tags: N-terminal 6xHisTEV removed by TEV protease, chain copies: 2, label: 5'-HEX on strand 1
[9] = target: T6, HU alpha (Escherichia coli, UniProt P0ACF0 1-90); assay: as above; conditions: protein: recombinant, tags: N-terminal 6xHisTEV removed by TEV protease, chain copies: 2, label: 5'-HEX on strand 1
[10] = target: HU (Mycoplasma gallisepticum, UniProt A0A0F6CKR5 1-99); assay: as above; conditions: protein: recombinant, tags: N-terminal 6xHisTEV removed by TEV protease, chain copies: 2, label: 5'-HEX on strand 1
[11] = target: T7, HU (Spiroplasma melliferum, UniProt A0ABX5UAT3 1-94); assay: as above; conditions: protein: recombinant, tags: N-terminal 6xHisTEV removed by TEV protease, chain copies: 2, label: 5'-HEX on strand 1
T7 sequence: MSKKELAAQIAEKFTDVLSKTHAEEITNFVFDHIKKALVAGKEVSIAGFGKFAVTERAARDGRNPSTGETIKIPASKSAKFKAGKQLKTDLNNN

[12] = target: T1, HU; assay: EMSA; 150 mM NaCl; 20 mM Tris-HCl pH 8.0, 7% glycerol, 40 mM NaCl (dsDNA length series, 200 nM DNA, gel 50 mM Tris-borate) or 150 mM NaCl (distorted structures, 10.5 nM DNA, gel 100 mM Tris-borate); 15 min, temperature not stated; conditions: protein: recombinant; tags: N-terminal 6xHisTEV removed by TEV protease; chain copies: 2; label: 5'-HEX on strand 1; four-way junction 1:2 2:3 3:4 4:1
[13] = target: T6, HU alpha; assay: EMSA; 40 mM NaCl; 20 mM Tris-HCl pH 8.0, 7% glycerol, 40 mM NaCl (dsDNA length series, 200 nM DNA, gel 50 mM Tris-borate) or 150 mM NaCl (distorted structures, 10.5 nM DNA, gel 100 mM Tris-borate); 15 min, temperature not stated; conditions: protein: recombinant; tags: N-terminal 6xHisTEV removed by TEV protease; chain copies: 2; label: 5'-HEX; blunt
[14] = target: T1, HU; assay: EMSA; 40 mM NaCl; 2 complexes; 20 mM Tris-HCl pH 8.0, 7% glycerol, 40 mM NaCl (dsDNA length series, 200 nM DNA, gel 50 mM Tris-borate) or 150 mM NaCl (distorted structures, 10.5 nM DNA, gel 100 mM Tris-borate); 15 min, temperature not stated; conditions: protein: recombinant; tags: N-terminal 6xHisTEV removed by TEV protease; chain copies: 2; label: 5'-HEX; blunt
[15] = target: T1, HU; assay: EMSA; 40 mM NaCl; 4 complexes; 20 mM Tris-HCl pH 8.0, 7% glycerol, 40 mM NaCl (dsDNA length series, 200 nM DNA, gel 50 mM Tris-borate) or 150 mM NaCl (distorted structures, 10.5 nM DNA, gel 100 mM Tris-borate); 15 min, temperature not stated; conditions: protein: recombinant; tags: N-terminal 6xHisTEV removed by TEV protease; chain copies: 2; label: 5'-HEX; blunt
[16] = target: T6, HU alpha; assay: EMSA; 40 mM NaCl; 3 complexes; 20 mM Tris-HCl pH 8.0, 7% glycerol, 40 mM NaCl (dsDNA length series, 200 nM DNA, gel 50 mM Tris-borate) or 150 mM NaCl (distorted structures, 10.5 nM DNA, gel 100 mM Tris-borate); 15 min, temperature not stated; conditions: protein: recombinant; tags: N-terminal 6xHisTEV removed by TEV protease; chain copies: 2; label: 5'-HEX; blunt
[17] = target: T1, HU; assay: as above; conditions: protein: recombinant; tags: N-terminal 6xHisTEV removed by TEV protease; chain copies: 2; label: 5'-HEX; blunt
[18] = four-way junction 1:2 2:3 3:4 4:1
[19] = duplex with 1 unpaired A in strand 2
[20] = duplex with 3 unpaired A in strand 2
[21] = duplex with 7 unpaired A in strand 2

Work on DNA invasion (inv) yielded a binding signal (fold affinity vs nicked DNA) [1] of 20 and a binding signal (fold affinity vs nicked DNA) [2] of 5.

“AGTCTAGAGTGCAGTTGAGTCCTTGCTACGACGGATCCCTTAGGTCAG / CTGACCTAAGGGATCCGTCGTAGCAAGGGGCTGATACCGGAAGCTTCT / AGAAGCTTCCGGTATCAGCCTGAGCGGTGGTTGAATTCCT / AGGAATTCAACCACCGCTCAACTCAACTGCACTCTAGACT [four-way junction (J)]” showed a binding signal (fold affinity vs nicked DNA) [1] of 10.

“AGTCTAGAGTGCAGTTGAGTCCTTGCTACGACGGATCCCTTAGGTCAG / CTGACCTAAGGGATCCGTCGTAGCAAGAGACTCAACTGCACTCTAGACT [bulge A1]” was tested, and the Kd [1] was 132 nM and the Kd [3] was 35 nM.

“AGTCTAGAGTGCAGTTGAGTCCTTGCTACGACGGATCCCTTAGGTCAG (double strand) [D48 dsDNA (ds)]” showed a Kd [4] of 440 nM, a Kd [5] of 1100 nM and a Kd [6] of 117 nM. The Kd [7] was 293 nM.

B1: four-way junction (J) (structured_DNA)
DNA 1: AGTCTAGAGTGCAGTTGAGTCCTTGCTACGACGGATCCCTTAGGTCAG
DNA 2: CTGACCTAAGGGATCCGTCGTAGCAAGGGGCTGATACCGGAAGCTTCT
DNA 3: AGAAGCTTCCGGTATCAGCCTGAGCGGTGGTTGAATTCCT
DNA 4: AGGAATTCAACCACCGCTCAACTCAACTGCACTCTAGACT
With B1 the Kd [8, 18] was 110 ± 25 nM, the Kd [9, 18] was 44 ± 10 nM and the Kd [10, 18] was 26 ± 6 nM. For the same molecule, the Kd [11, 18] was 35 ± 8 nM and the binding signal [12] was 4 fold affinity vs nicked DNA.

B2: bulge A1 (structured_DNA)
DNA 1: AGTCTAGAGTGCAGTTGAGTCCTTGCTACGACGGATCCCTTAGGTCAG
DNA 2: CTGACCTAAGGGATCCGTCGTAGCAAGAGACTCAACTGCACTCTAGACT
In the case of B2, the Kd [8, 19] is reported as 440 ± 120 nM, the Kd [9, 19] is reported as 88 ± 20 nM and the Kd [10, 19] is reported as 132 ± 30 nM. The Kd [11, 19] was 35 ± 8 nM.

B3: nicked DNA (n) (structured_DNA)
DNA 1: AGTCTAGAGTGCAGTTGAGTCCTTGCTACGACGGATCCCTTAGGTCAG
DNA 2: CTGACCTAAGGGATCCGTCGTAGCAAGG
DNA 3: ACTCAACTGCACTCTAGACT
Work on B3 yielded a Kd ([8]; nick 1:2 1:3) of 440 ± 100 nM, a Kd ([9]; nick 1:2 1:3) of 88 ± 20 nM and a Kd ([10]; nick 1:2 1:3) of 264 ± 70 nM. The Kd ([11]; nick 1:2 1:3) was 35 ± 8 nM.

B4: overhang (ov) (structured_DNA)
DNA 1: AGTCTAGAGTGCAGTTGAGTCCTTGCTACGACGGATCCCTTAGGTCAG
DNA 2: ACTCAACTGCACTCTAGACT
B4 was tested, and the Kd ([8]; 3' overhang 28 nt) was 120 ± 25 nM, the Kd ([9]; 3' overhang 28 nt) was 50 ± 15 nM and the Kd ([10]; 3' overhang 28 nt) was 30 ± 8 nM. For the same molecule, the Kd ([11]; 3' overhang 28 nt) was 45 ± 10 nM.

B5: bulge A3 (structured_DNA)
DNA 1: AGTCTAGAGTGCAGTTGAGTCCTTGCTACGACGGATCCCTTAGGTCAG
DNA 2: CTGACCTAAGGGATCCGTCGTAGCAAGAAAGACTCAACTGCACTCTAGACT
For B5, the Kd [8, 20] was 440 ± 120 nM, the Kd [9, 20] was 88 ± 20 nM and the Kd [10, 20] was 132 ± 30 nM. For the same molecule, the Kd [11, 20] was 35 ± 8 nM.

B6: bulge A7 (structured_DNA)
DNA 1: AGTCTAGAGTGCAGTTGAGTCCTTGCTACGACGGATCCCTTAGGTCAG
DNA 2: CTGACCTAAGGGATCCGTCGTAGCAAGAAAAAAAGACTCAACTGCACTCTAGACT
Work on B6 yielded a Kd [8, 21] of 220 ± 60 nM, a Kd [9, 21] of 44 ± 10 nM and a Kd [10, 21] of 44 ± 12 nM. For the same molecule, the Kd [11, 21] was 12 ± 4 nM.

B7: D21 dsDNA (dsDNA)
DNA 1: AGTCTAGAGTGCAGTTGAGTC
DNA 2: GACTCAACTGCACTCTAGACT
B7: binds [13]; binds [14].

B8: D36 dsDNA (dsDNA)
DNA 1: AGTCTAGAGTGCAGTTGAGTCCTTGCTACGACGGAT
DNA 2: ATCCGTCGTAGCAAGGACTCAACTGCACTCTAGACT
B8: binds [13]; binds [15].

B9: D29 dsDNA (dsDNA)
DNA 1: AGTCTAGAGTGCAGTTGAGTCCTTGCTAC
DNA 2: GTAGCAAGGACTCAACTGCACTCTAGACT
B9: binds [16].

B10: D27 dsDNA (dsDNA)
DNA 1: AGTCTAGAGTGCAGTTGAGTCCTTGCT
DNA 2: AGCAAGGACTCAACTGCACTCTAGACT
B10: binds [17].
